Our source for the Kd values is publication doi:10.1101/2020.12.03.410779 (bioRxiv, 2020).

Broadly, the Kd is the equilibrium constant for the complex coming apart.

The assay deals with PDZ domain of mouse SNX27 (mouse, UniProt Q3UHD6 41-134). Briefly: ITC. A general note: Isothermal titration calorimetry measures the heat released or taken up as one component is titrated into another.

In turn, QEEWETVM [PTHR_(586-593) cargo peptide] gave a Kd of 700 nM.
